Laboratory results published in PMC4402518.

Target: Hop2;Mnd1 (Giardia lamblia ATCC 50803;Giardia lamblia ATCC 50803) (UniProt E2RTU1)
Experiment: fluorescence anisotropy
Conditions: Fluorescence anisotropy: 20 mM Tris-HCl pH 7.5, 100 mM NaCl, 5 mM MgCl2, 25 C, 50 nM DNA, triplicate, Exo I assay conditions not in material

## GCGGGTAATCCAGATGTTCCACGTGAAACAGAACAACTAA (double strand) [40 bp dsDNA]
5 mM Mg2+
  Kd: 100 nM
No Mg2+
  binding signal (fold weaker than with 5 mM Mg2+): 10
